Measurements taken from patent publication US10280205B2, “Method for treating cancer with an activated T lymphocyte that selectively recognizes a cancer cell consisting of specific peptide” (immatics biotechnologies GmbH, priority 2015, dated 2019).

molecular target: HLA-A*02:01 (Homo sapiens, UniProt P04439, D140Y/D185E/D98H/E176V/E277Q/G131W/G231S/I119V/I121R/I166T/I218V/L300P/L318F/N151K/N90K/P208A/P217A/Q86G/Q94H/R138H/R169H/T345S); experiment: MHC binding assay: UV-ligand exchange with beta2m ELISA (exchange yield); conditions: binding to HLA-A*02:01, β2m ELISA
Source text: Candidate peptides for T cell based therapies according to the present invention were further tested for their MHC binding capacity (affinity). The individual peptide-MHC complexes were produced by UV-ligand exchange, where a UV-sensitive peptide is cleaved upon UV-irradiation, and exchanged with the peptide of interest as analyzed. Only peptide candidates that can effectively bind and stabilize the peptide-receptive MHC molecules prevent dissociation of the MHC complexes. To determine the yield of the exchange reaction, an ELISA was performed based on the detection of the light chain (β2m) of stabilized MHC complexes. The assay was performed as generally described in Rodenko et al. (Rodenko et al., 2006).
96 well MAXISorp plates (NUNC) were coated over night with 2 ug/ml streptavidin in PBS at room temperature, washed 4× and blocked for 1 h at 37° C. in 2% BSA containing blocking buffer. […] Peptide-MHC monomers of the UV-exchange reaction were diluted 100 fold in blocking buffer. Samples were incubated for 1h at 37° C., washed four times, incubated with 2 ug/ml HRP conjugated anti-β2m for 1h at 37° C., washed again and detected with TMB solution that is stopped with […]. Absorption was measured at 450 nm. Candidate peptides that show a high exchange yield (preferably higher than 50%, most preferred higher than 75%) are generally preferred for a generation and production of antibodies or fragments thereof, and/or T cell receptors or fragments thereof, as they show sufficient avidity to the MHC molecules and prevent dissociation of the MHC complexes.

Peptide exchange (MHC class I binding score, peptide exchange yield) | Substance
“+++” (≥50 = +++) | 383 (ALLELENSVTL; listed as Homo sapiens) [compound 383]
“+++” (≥50 = +++) | 609 (ALWKQLLEL; listed as Homo sapiens) [compound 609]
“+++” (≥50 = +++) | 367 (SLQNHNHQL; listed as Homo sapiens) [compound 367]
“+++” (≥50 = +++) | 361 (ALYELEGTTV; listed as Homo sapiens) [compound 361]
“+++” (≥50 = +++) | 582 (TLCDVILMV; listed as Homo sapiens) [compound 582]
“+++” (≥50 = +++) | 588 (SLLPLSHLV; listed as Homo sapiens) [compound 588]
“++++” (≥75% = ++++) | 552 (GLLDLPFRVGV; listed as Homo sapiens) [compound 552]
“+++” (≥50 = +++) | 475 (LLLNEEALAQI; listed as Homo sapiens) [compound 475]
“+++” (≥50 = +++) | 596 (ALLDQTKTLAESAL; listed as Homo sapiens) [compound 596]
“++” (≥20% = ++) | 516 (AVGPASILKEV; listed as Homo sapiens) [compound 516]
“++” (≥20% = ++) | 580 (LLMENAERV; listed as Homo sapiens) [compound 580]
“++” (≥20% = ++) | 381 (FIDEAYVEV; listed as Homo sapiens) [compound 381]
“++” (≥20% = ++) | 455 (SLLKEPQKVQL; listed as Homo sapiens) [compound 455]
“++” (≥20% = ++) | 398 (KLLEEDGTIITL; listed as Homo sapiens) [compound 398]
“++” (≥20% = ++) | 431 (SLVNVVPKL; listed as Homo sapiens) [compound 431]
“+++” (≥50 = +++) | 365 (YVIDQGETDVYV; listed as Homo sapiens) [compound 365]
“+++” (≥50 = +++) | 561 (YLQLTQSEL; listed as Homo sapiens) [compound 561]
“+++” (≥50 = +++) | 346 (LLDSKVPSV; listed as Homo sapiens) [compound 346]
“+++” (≥50 = +++) | 591 (SMAELDIKL; listed as Homo sapiens) [compound 591]
“+++” (≥50 = +++) | 619 (ALQDRVPLA; listed as Homo sapiens) [compound 619]
“+++” (≥50 = +++) | 503 (SLNHFTHSV; listed as Homo sapiens) [compound 503]
“+++” (≥50 = +++) | 397 (YLFGERLLEC; listed as Homo sapiens) [compound 397]
“++++” (≥75% = ++++) | 527 (FLLEPGNLEV; listed as Homo sapiens) [compound 527]
“++” (≥20% = ++) | 400 (SLLTEQDLWTV; listed as Homo sapiens) [compound 400]
“++” (≥20% = ++) | 379 (IMEGTLTRV; listed as Homo sapiens) [compound 379]
“+++” (≥50 = +++) | 487 (LLINSVFHV; listed as Homo sapiens) [compound 487]
“++” (≥20% = ++) | 405 (ALYDVFLEV; listed as Homo sapiens) [compound 405]
“+++” (≥50 = +++) | 464 (ALNDCIYSV; listed as Homo sapiens) [compound 464]
“+++” (≥50 = +++) | 396 (ALLPDLPAL; listed as Homo sapiens) [compound 396]
“+++” (≥50 = +++) | 366 (RLLDMGETDLML; listed as Homo sapiens) [compound 366]

Second part, the substance before the results:

Substance | Peptide exchange (MHC class I binding score, peptide exchange yield)
136 (YLADPSNLFVV; listed as Homo sapiens) [compound 136] | “+++” (≥50 = +++)
267 (ALQDFLLSV; listed as Homo sapiens) [compound 267] | “+++” (≥50 = +++)
227 (ALMNTLLYL; listed as Homo sapiens) [compound 227] | “++” (≥20% = ++)
231 (FLSPQQPPLLL; listed as Homo sapiens) [compound 231] | “++” (≥20% = ++)
55 (SLLDLETLSL; listed as Homo sapiens) [compound 55] | “++++” (≥75% = ++++)
73 (NIFDLQIYV; listed as Homo sapiens) [compound 73] | “+++” (≥50 = +++)
29 (KMLGIPISNILMV; listed as Homo sapiens) [compound 29] | “+++” (≥50 = +++)
83 (ILAPTVMMI; listed as Homo sapiens) [compound 83] | “+++” (≥50 = +++)
239 (AAFAGKLLSV; listed as Homo sapiens) [compound 239] | “+++” (≥50 = +++)
333 (FLPDANSSV; listed as Homo sapiens) [compound 333] | “++” (≥20% = ++)
329 (FLVTLNNVEV; listed as Homo sapiens) [compound 329] | “++++” (≥75% = ++++)
89 (YILPTETIYV; listed as Homo sapiens) [compound 89] | “++++” (≥75% = ++++)
278 (QLLDVVLTI; listed as Homo sapiens) [compound 278] | “++” (≥20% = ++)
345 (VIWKALIHL; listed as Homo sapiens) [compound 345] | “+++” (≥50 = +++)
9 (GAAKDLPGV; listed as Homo sapiens) [compound 9] | “++” (≥20% = ++)
250 (ALSEEGLLVYL; listed as Homo sapiens) [compound 250] | “+++” (≥50 = +++)

Substance | Peptide exchange (MHC class I binding score, peptide exchange yield)
28 (QLLDETSAITL; listed as Homo sapiens) [compound 28] | “+++” (≥50 = +++)
57 (TLAELQPPVQL; listed as Homo sapiens) [compound 57] | “+++” (≥50 = +++)
300 (ALLGQTFSL; listed as Homo sapiens) [compound 300] | “+++” (≥50 = +++)
1 (SLMEPPAVLLL; listed as Homo sapiens) [compound 1] | “+++” (≥50 = +++)
152 (ILFEDIFDV; listed as Homo sapiens) [compound 152] | “+++” (≥50 = +++)
272 (ALGNTVPAV; listed as Homo sapiens) [compound 272] | “+++” (≥50 = +++)
25 (FLPDEPYIKV; listed as Homo sapiens) [compound 25] | “+++” (≥50 = +++)
243 (LLLNELPSV; listed as Homo sapiens) [compound 243] | “+++” (≥50 = +++)
198 (KTINKVPTV; listed as Homo sapiens) [compound 198] | “+++” (≥50 = +++)
69 (FQLDPSSGVLVTV; listed as Homo sapiens) [compound 69] | “+++” (≥50 = +++)
233 (VLSETLYEL; listed as Homo sapiens) [compound 233] | “++” (≥20% = ++)
171 (LLLPLQILL; listed as Homo sapiens) [compound 171] | “+++” (≥50 = +++)
228 (AMQEYIAVV; listed as Homo sapiens) [compound 228] | “++” (≥20% = ++)
67 (TLLAEALVTV; listed as Homo sapiens) [compound 67] | “+++” (≥50 = +++)
15 (VLLTFKIFL; listed as Homo sapiens) [compound 15] | “++” (≥20% = ++)
